Where a chain is given by its changes, count along the chain named. Where two headings read alike, the source gives them in different places.
B1: biotinylated EIIIB (protein fragment of fibronectin splice variant EIIIB) (domain or fragment)
chain: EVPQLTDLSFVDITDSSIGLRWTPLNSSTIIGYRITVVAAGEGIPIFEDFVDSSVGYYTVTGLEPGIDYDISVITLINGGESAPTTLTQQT
modifications: biotin (ChromaLink NHS-biotin reagent)
B2: NJB2-IL2 (NJB2 nanobody fused to murine IL-2) (VHH)
VHH: QVQLVETGGGLVQAGGSLRLSCAASGSTFSHNAGGWYRQAPEKQRELVAGISSDGNINYADSVKDRFTISRDNASNTMYLQMNNLKPEDTAVYVCNIRGSYGNTYYSRWGQGTQVTVSS
B3: LMJ1.2C-IL2 (LMJ1.2C nanobody fused to murine IL-2) (VHH)
VHH: B2 VHH with N32S, S52R
B4: NJB2-IL2-mt (NJB2 fused to murine IL-2 bearing point mutations that abrogate cytokine activity) (VHH)
VHH: B2 VHH
B5: LMJ1.2C nanobody, biotin-tagged (VHH)
VHH: B2 VHH with N32S, S52R
modifications: biotin at the C-terminus via sortase-mediated tagging (nucleophile GGGK-Biotin)
B6: LMJ2.5I nanobody, biotin-tagged (VHH)
VHH: B2 VHH with Q1R, A24V, N32S, S52R, T113A
modifications: biotin at the C-terminus via sortase-mediated tagging (nucleophile GGGK-Biotin)
B7: LMJ2.5I-IL2 (LMJ2.5I nanobody fused to murine IL-2) (VHH)
VHH: B2 VHH with Q1R, A24V, N32S, S52R, T113A

How the values were obtained:
Assay in all cases: BLI
[1] = biological target: LMJ2.6A
[2] = biological target: LMJ2.5G
[3] = biological target: LMJ1.2G
[4] = biological target: LMJ2.4C
[5] = biological target: LMJ2.5C
[6] = biological target: LMJ2.5H
[7] = biological target: LMJ2.5J
[8] = biological target: LMJ1.3J
[9] = biological target: NJB2
[10] = biological target: B1
[11] = biological target: B1; remark: listed apart in the source
[12] = biological target: B1; remark: listed apart in the source
[13] = biological target: B1; remark: listed apart in the source

Chain of LMJ2.5H (P02751 1266-1356): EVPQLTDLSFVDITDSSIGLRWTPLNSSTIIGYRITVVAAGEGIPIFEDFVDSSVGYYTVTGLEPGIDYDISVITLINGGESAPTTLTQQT
Chain of LMJ2.5G (P02751 1266-1356): as above
Chain of LMJ1.2G (P02751 1266-1356): as above
Chain of LMJ2.5J (P02751 1266-1356): as above
Chain of LMJ2.6A (P02751 1266-1356): as above
Chain of LMJ2.4C (P02751 1266-1356): as above
Chain of LMJ1.3J (P02751 1266-1356): as above
Chain of NJB2 (P02751 1266-1356): as above
Chain of LMJ2.5C (P02751 1266-1356): as above

Binder: B1
Kd [1]: 0.344 nM
koff [1]: 7.47e-05 s⁻¹
Kd [2]: 0.166 nM
koff [2]: 9.13e-05 s⁻¹
Kd [3]: 0.973 nM
koff [3]: 0.000475 s⁻¹
Kd [4]: 0.0626 nM
koff [4]: 4.8e-05 s⁻¹
Kd [5]: 0.0785 nM
koff [5]: 3.52e-05 s⁻¹
Kd [6]: 0.227 nM
koff [6]: 0.000136 s⁻¹
Kd [7]: 0.0622 nM
koff [7]: 4.45e-05 s⁻¹
Kd [8]: 0.402 nM
koff [8]: 0.000305 s⁻¹
Kd [9]: 1.82 nM
koff [9]: 0.00104 s⁻¹

Binder: B2
Kd [10]: 1.1 nM
koff [11]: 0.000289 s⁻¹
Kd [12]: 0.996 nM

Binder: B3
koff [11]: 5.06e-06 s⁻¹
Kd [12]: 0.0144 nM

Binder: B4
Kd [10]: 1.6 nM

Binder: B5
koff [13]: 0.00015 s⁻¹

Binder: B6
koff [13]: 2.49e-05 s⁻¹

Binder: B7
koff [11]: < 1e-07 s⁻¹
Kd [12]: < 0.001 nM

— article PMC9802395 (2022)
